Each binder was assayed against Anti-CD28 Fab (SEQ ID NOs: 696, 697) (assay: phage binding ELISA; biotinylated anti-CD28 Fab on neutravidin plate, clonal phage, anti-M13 HRP detection).
Target sequence in this assay (VH, as listed by the source, chain 1 of 2): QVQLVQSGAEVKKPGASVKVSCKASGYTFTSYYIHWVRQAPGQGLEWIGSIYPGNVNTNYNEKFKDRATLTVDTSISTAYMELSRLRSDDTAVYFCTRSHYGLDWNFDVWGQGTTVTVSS
Target sequence in this assay (VL, as listed by the source, chain 2 of 2): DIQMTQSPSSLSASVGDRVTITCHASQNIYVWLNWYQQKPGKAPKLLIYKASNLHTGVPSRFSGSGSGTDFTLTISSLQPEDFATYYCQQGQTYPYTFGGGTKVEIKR
Description: (§1) Clonal phage were harvested as crude supematants and screened via standard ELISAs. […] Prior to the addition of clonal phage, wells were incubated with blocking buffer and CD28 antigen or blocking buffer alone. Without washing or aspirating, clonal phage supematants were then added to the wells and incubated for a short time. Wells were then washed followed by detection of bound phage using a horse radish conjugated anti-M13 antibody. Clonal phage of interest were then sent for sequence analysis.

Binder	Anti-CD28 Fab signal (phage binding ELISA)
SCAAGFDYGWPMCL (Tested as clonal phage supernatant) [Phage-1644 (peptide-92 library clone, SEQ ID NO: 1940)]	1.16
LCSAGAMYPWPVCL (Tested as clonal phage supernatant) [Phage-1640 (peptide-92 library clone, SEQ ID NO: 1936)]	1.19
LCAAGATYPWPDCV (Tested as clonal phage supernatant) [Phage-1635 (peptide-92 library clone, SEQ ID NO: 1931)]	1.21
SCSAVFSYRWPKCL (Tested as clonal phage supernatant) [Phage-1642 (peptide-92 library clone, SEQ ID NO: 1938)]	1.18
SCSAGATWAWPQCF (Tested as clonal phage supernatant) [Phage-1641 (peptide-92 library clone, SEQ ID NO: 1937)]	1.19
TCSAGATYSWPYCL (Tested as clonal phage supernatant) [Phage-1633 (peptide-92 library clone, SEQ ID NO: 1929)]	1.22
PCSDGVAYPWPYCV (Tested as clonal phage supernatant) [Phage-1638 (peptide-92 library clone, SEQ ID NO: 1934)]	1.2
SCSAGAGWAWPMCF (Tested as clonal phage supernatant) [Phage-1643 (peptide-92 library clone, SEQ ID NO: 1939)]	1.16
SCAAGAHWSWPVCF (Tested as clonal phage supernatant) [Phage-1639 (peptide-92 library clone, SEQ ID NO: 1935)]	1.2
TCAAGANWPWPECL (Tested as clonal phage supernatant) [Phage-1636 (peptide-92 library clone, SEQ ID NO: 1932)]	1.21
TCAAGANYSWPACL (Tested as clonal phage supernatant) [Phage-1646 (peptide-92 library clone, SEQ ID NO: 1942)]	1.14
SCADGFNYVWPLCF (Tested as clonal phage supernatant) [Phage-1645 (peptide-92 library clone, SEQ ID NO: 1941)]	1.14
TCSAGATYSWPSCF (Tested as clonal phage supernatant) [Phage-1634 (peptide-92 library clone, SEQ ID NO: 1930)]	1.21
LCEEFFHYSWPLCL (Tested as clonal phage supernatant) [Phage-1637 (peptide-92 library clone, SEQ ID NO: 1933)]	1.21

These binders were tested against Anti-CD28 Fab (SEQ ID NOs: 696, 697) (assay: phage binding ELISA on captured anti-CD28 Fab, wells pre-incubated with CD28 antigen as competitor).
Target sequence in this assay (VH, as listed by the source, chain 1 of 2): as the sequence (VH, as listed by the source, chain 1 of 2) above
Target sequence in this assay (VL, as listed by the source, chain 2 of 2): as the sequence (VL, as listed by the source, chain 2 of 2) above
Description: as §1

Binder	Anti-CD28 Fab signal in the presence of CD28 (phage binding ELISA)
SCAAGFDYGWPMCL (Tested as clonal phage supernatant) [Phage-1644 (peptide-92 library clone, SEQ ID NO: 1940)]	0.06
LCSAGAMYPWPVCL (Tested as clonal phage supernatant) [Phage-1640 (peptide-92 library clone, SEQ ID NO: 1936)]	0.08
LCAAGATYPWPDCV (Tested as clonal phage supernatant) [Phage-1635 (peptide-92 library clone, SEQ ID NO: 1931)]	0.05
SCSAVFSYRWPKCL (Tested as clonal phage supernatant) [Phage-1642 (peptide-92 library clone, SEQ ID NO: 1938)]	0.06
SCSAGATWAWPQCF (Tested as clonal phage supernatant) [Phage-1641 (peptide-92 library clone, SEQ ID NO: 1937)]	0.08
TCSAGATYSWPYCL (Tested as clonal phage supernatant) [Phage-1633 (peptide-92 library clone, SEQ ID NO: 1929)]	0.07
PCSDGVAYPWPYCV (Tested as clonal phage supernatant) [Phage-1638 (peptide-92 library clone, SEQ ID NO: 1934)]	0.06
SCSAGAGWAWPMCF (Tested as clonal phage supernatant) [Phage-1643 (peptide-92 library clone, SEQ ID NO: 1939)]	0.08
SCAAGAHWSWPVCF (Tested as clonal phage supernatant) [Phage-1639 (peptide-92 library clone, SEQ ID NO: 1935)]	0.08
TCAAGANWPWPECL (Tested as clonal phage supernatant) [Phage-1636 (peptide-92 library clone, SEQ ID NO: 1932)]	0.08
TCAAGANYSWPACL (Tested as clonal phage supernatant) [Phage-1646 (peptide-92 library clone, SEQ ID NO: 1942)]	0.08
SCADGFNYVWPLCF (Tested as clonal phage supernatant) [Phage-1645 (peptide-92 library clone, SEQ ID NO: 1941)]	0.08
TCSAGATYSWPSCF (Tested as clonal phage supernatant) [Phage-1634 (peptide-92 library clone, SEQ ID NO: 1930)]	0.09
LCEEFFHYSWPLCL (Tested as clonal phage supernatant) [Phage-1637 (peptide-92 library clone, SEQ ID NO: 1933)]	0.06

Each binder was assayed against T1, Anti-CD28 Fab (SEQ ID NOs: 696, 697) (assay: phage binding ELISA on captured Fab; wells pre-incubated with CD28 antigen as competitor).
T1 construct: In the phage ELISA the Fab was biotinylated and captured on neutravidin coated plates
T1 sequence (VH, as listed by the source, chain 1 of 2): as the sequence (VH, as listed by the source, chain 1 of 2) above
T1 sequence (VL, as listed by the source, chain 2 of 2): as the sequence (VL, as listed by the source, chain 2 of 2) above
Description: (§2) Clonal phage were harvested as crude supematants and screened via standard ELISAs. […] Prior to the addition of clonal phage, wells were incubated with blocking buffer and CD28 antigen or blocking buffer alone. Without washing or aspirating, clonal phage supematants were then added to the wells and incubated for a short time. Wells were then washed followed by detection of bound phage using a horse radish conjugated anti-M13 antibody.

Binder	Anti-CD28 Fab signal in the presence of CD28
TCSAGATYTWPVCF [Phage-1648]	0.06
TCSAGATYSWPLCF [Phage-1650]	0.09
TCSAGAHYEWPKCL [Phage-1649]	0.07
QCAAGATYPWPVCL [Phage-1647]	0.09

What follows are binders tested against T2, Anti-CD28 Fab (SEQ ID NOs: 696, 697) (assay: phage ELISA on captured anti-CD28 Fab; wells pre-incubated with CD28 antigen as competitor;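 further: clonal phage from crude supernatants added to wells pretreated with blocking buffer with or without CD28, bound phage read by ELISA with HRP-conjugated anti-M13 antibody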).
T2 construct: In the phage ELISA the Fab was biotinylated and captured on neutravidin coated plates
T2 sequence (VH, as listed by the source, chain 1 of 2): as the sequence (VH, as listed by the source, chain 1 of 2) above
T2 sequence (VL, as listed by the source, chain 2 of 2): as the sequence (VL, as listed by the source, chain 2 of 2) above
Description: as §1

Binder	Phage binding ELISA, Anti-CD28 Fab signal in the presence of CD28
SCAAGAMWEWPKCF [Phage-1610]	0.09
SCAEVFNYVWPFCF [Phage-1608]	0.07
SCADGAIWEWPWCF [Phage-1611]	0.07
SCSAGATYTWPACL [Phage-1605]	0.07
QCSAGATYAWPFCL [Phage-1615]	0.08
RCAAVFSYTWPPCL [Phage-1618]	0.07
TCSAGAHYSWPKCF [Phage-1606]	0.07
TCAAGVPYKWPPCL [Phage-1616]	0.06
SCAAGATYTWPFCL [Phage-1617]	0.07
TCAAGATYEWPSCL [Phage-1612]	0.09
TCAAGAAYTWPVCF [Phage-1609]	0.08
SCAAGAHYPWPECL [Phage-1607]	0.05
LCAAGAAWEWPMCF [Phage-1614]	0.06
SCSAGAMYTWPTCL [Phage-1613]	0.08

What follows are binders tested against T3, Anti-CD28 Fab (SEQ ID NOs: 696, 697) in the same assay as above.
T3 construct: In the phage ELISA the Fab was biotinylated and captured on neutravidin coated plates
T3 sequence (VH, as listed by the source, chain 1 of 2): as the sequence (VH, as listed by the source, chain 1 of 2) above
T3 sequence (VL, as listed by the source, chain 2 of 2): as the sequence (VL, as listed by the source, chain 2 of 2) above
Description: as §1

Binder	Phage binding ELISA, Anti-CD28 Fab signal in the presence of CD28
NCAAGAMYSWPTCL [Phage-1625]	0.07
TCAAGATWLWPWCL [Phage-1629]	0.07
TCAAGATYMWPVCL [Phage-1627]	0.07
TCAAGAVWTWPICF [Phage-1630]	0.05
RCAAGAMWTWPACF [Phage-1626]	0.06
LCAAGAYYPWPLCF [Phage-1620]	0.06
TCTAGFSYKWPTCL [Phage-1621]	0.09
SCAAGATYSWPACL [Phage-1624]	0.07
SCSAGATYQWPYCF [Phage-1623]	0.06
TCSAGATYKWPACF [Phage-1619]	0.05
SCAAGATWKWPECL [Phage-1628]	0.07
NCSAGATWPWPMCF [Phage-1622]	0.06
TCSAGASWGWPWCL [Phage-1632]	0.07
TCADGAFWQWPVCL [Phage-1631]	0.07

Each binder was assayed against T3, Anti-CD28 Fab (SEQ ID NOs: 696, 697) (assay: phage ELISA; biotinylated anti-CD28 Fab captured on neutravidin plate, clonal phage detected with HRP anti-M13 antibody).
Description: as §2

Binder	Phage binding ELISA, Anti-CD28 Fab signal
NCAAGAMYSWPTCL [Phage-1625]	1.25
TCAAGATWLWPWCL [Phage-1629]	1.23
TCAAGATYMWPVCL [Phage-1627]	1.24
TCAAGAVWTWPICF [Phage-1630]	1.23
RCAAGAMWTWPACF [Phage-1626]	1.25
LCAAGAYYPWPLCF [Phage-1620]	1.28
TCTAGFSYKWPTCL [Phage-1621]	1.28
SCAAGATYSWPACL [Phage-1624]	1.25
SCSAGATYQWPYCF [Phage-1623]	1.26
TCSAGATYKWPACF [Phage-1619]	1.29
SCAAGATWKWPECL [Phage-1628]	1.24
NCSAGATWPWPMCF [Phage-1622]	1.27
TCSAGASWGWPWCL [Phage-1632]	1.22
TCADGAFWQWPVCL [Phage-1631]	1.22

Each binder was assayed against T1, Anti-CD28 Fab (SEQ ID NOs: 696, 697) (assay: phage binding ELISA; biotinylated Fab on neutravidin plate, clonal phage supernatant, anti-M13 HRP detection).
Description: as §1

Binder	Anti-CD28 Fab (SEQ ID NOs: 696, 697) signal
TCSAGATYTWPVCF [Phage-1648]	1.13
TCSAGATYSWPLCF [Phage-1650]	1.12
TCSAGAHYEWPKCL [Phage-1649]	1.12
QCAAGATYPWPVCL [Phage-1647]	1.13

Each binder was assayed against T2, Anti-CD28 Fab (SEQ ID NOs: 696, 697) (assay: phage ELISA; biotinylated anti-CD28 Fab on neutravidin plate, bound phage detected with anti-M13-HRP).
Description: as §2

Binder	Phage binding ELISA, Anti-CD28 Fab signal
SCAAGAMWEWPKCF [Phage-1610]	1.32
SCAEVFNYVWPFCF [Phage-1608]	1.32
SCADGAIWEWPWCF [Phage-1611]	1.32
SCSAGATYTWPACL [Phage-1605]	1.34
QCSAGATYAWPFCL [Phage-1615]	1.29
RCAAVFSYTWPPCL [Phage-1618]	1.29
TCSAGAHYSWPKCF [Phage-1606]	1.33
TCAAGVPYKWPPCL [Phage-1616]	1.29
SCAAGATYTWPFCL [Phage-1617]	1.29
TCAAGATYEWPSCL [Phage-1612]	1.32
TCAAGAAYTWPVCF [Phage-1609]	1.32
SCAAGAHYPWPECL [Phage-1607]	1.32
LCAAGAAWEWPMCF [Phage-1614]	1.3
SCSAGAMYTWPTCL [Phage-1613]	1.31

— patent US20260242478A1 (published 2026)
